System: NP110SM cells
Assay: Differentiation of clonal embryonic progenitor line NP110SM in HyStem beads, Illumina microarray gene expression
Type: cell-based, human
Description: Differentiation medium is high glucose DMEM (CellGro Cat. No. 15-013-CV) with Pyruvate, 1 mM (Gibco Cat. 11360), Pen:Strep 100U/ml:100 ug/ml (Gibco Cat. No. 504284), Glutamax 2 mM (Gibco Cat. No. 35050), Dexamethasone 0.1 uM (Sigma, St. Louis, Mo., Cat. No. D1756-100), L-Proline 0.35 mM (Sigma Cat. No. D49752), 2-phospho-L-Ascorbic Acid 0.17 mM (Sigma, Cat. No. 49792, Fluka), and ITS Premix (BD, Franklin Lakes, N.J., sterile Cat. No. 47743-628) with a final concentration 6.25 ug/ml insulin, 6.25 ug/ml transferrin, 6.25 ng/ml selenious acid, serum albumin 1.25 mg/ml, 5.35 ug/ml linoleic acid. In various differentiation conditions, the Differentiation medium is supplemented with various growth factors or other differentiation factors as described herein.
HyStem-C (BioTime, Inc. Alameda, Calif.) is a matrix composed of thiol-modified gelatin and thiolated hyaluronan crosslinked in vivo or in vitro with (polyethylene glycol diacrylate (PEGDA). We observed that clonal human embryonic progenitor cell lines such as those described in the present invention, could be efficiently differentiated in high-density cultures of said crosslinked collagen and hyaluronate in the following manner. HyStem-C® (BioTime, CA, USA) is reconstituted following the manufacturer's instructions. Briefly, the HyStem component (10 mg of thiol-modified hyaluronan) is dissolved in 1.0 ml of degassed deionized water for approximately 20 min to prepare a 1% w/v solution. The Gelin-S® component (10 mg of thiol-modified gelatin (BioTime)) is dissolved in 1.0 ml of degassed deionized water to prepare a 1% w/v solution, and polyethylene glycol diacrylate (10 mg of PEGDA) is dissolved in 0.5 ml of degassed deionized water to prepare a 2% w/v solution. Then, HyStem (1 ml, 1% w/v) is mixed with Gelin-S (1 ml, 1% w/v) immediately before use. Pelleted cells are resuspended in the recently prepared HyStem:Gelin-S (1:1 v/v) mix described above. Upon the addition of the PEGDA cross-linker, the cell suspension, at a final concentration of 2.0×10^7 cells/ml is aliquoted (25 μl/aliquot) into six-well plates (Corning® 3516; VWR, PA, USA) after partial gelation. Following complete gelation (20 min), Differentiation Medium is added to each well. Plates were then placed in a humidified incubator at 37° C. with ambient O2 and 10% CO2, and the cells were fed three-times weekly. At the desired time point, hydrogel constructs were either fixed and processed for immunohistochemical analysis or lysed using RLT (Qiagen, CA, USA) with 1% beta-mercaptoethanol for total RNA to analyze transcript expression using quantitative real-time PCR (qRT-PCR) and/or whole-genome microarray.
Total RNA was extracted directly from cells growing in 6-well plates or 10 cm tissue culture dishes using Qiagen RNeasy mini kits according to the manufacturer's instructions. RNA concentrations were measured using a Beckman DU530 or Nanodrop spectrophotometer and RNA quality was determined by denaturing agarose gel electrophoresis or using an Agilent 2100 bioanalyzer. Whole-genome expression analysis was carried out using Illumina Human Ref-8v3 or Human HT-12 v4 BeadArrays, and RNA levels for certain genes were confirmed by qRT-PCR. For the Illumina BeadArrays, total RNA was linearly amplified and biotin-labeled using Illumina TotalPrep kits (Life Technologies, Temecula, Calif., USA), and cRNA was quality-controlled using an Agilent 2100 Bioanalyzer. The cRNA was hybridized to Illumina BeadChips, processed, and read using a BeadStation array reader according to the manufacturer's instructions (Illumina, San Diego, Calif., USA). Values of less than 120 relative fluorescence units (RFUs) were considered as nonspecific background signal.
The line NP110SM was then exposed to differentiation in the BAT cell differentiation protocols described herein. […]

[1] = NP110SM, 14 days HyStem beads, 50 ng/ml BMP4, FIG. 15 sample 6

B1: BMP4: Bone Morphogenetic Protein 4, TGF-beta superfamily member (protein, UniProt P12644 293-408, looked up)
Bone morphogenetic protein 4: SPKHHSQRARKKNKNCRRHSLYVDFSDVGWNDWIVAPPGYQAFYCHGDCPFPLADHLNSTNHAIVQTLVNSVNSSIPKACCVPTELSAISMLYLDEYDKVVLKNYQEMVVEGCGCR
viability as measured by RNA yields and levels of the BAT markers (NP110SM, 50 ng/ml of BMP4, 5 μm rosiglitazone, embedded in HyStem beads, 14-21 days): highest viability | ADIPOQ expression [1]: markedly up-regulating | C19ORF80 expression [1]: markedly up-regulating | UCP1 expression [1]: low or undetectable level | expression of C19ORF80 transcript (NP110SM, HyStem beads supplemented with 10 ng/ml BMP4, FIG. 2): highest expression | viability of differentiating NP110SM cells as evidenced by RNA yields (addition of 50 ng/ml BMP4 to 5.0 μM rosiglitazone): appeared to improve the viability

Source: patent publication US20230093399A1, “METHODS FOR GENERATING PLURIPOTENT STEM CELL-DERIVED BROWN FAT CELLS” (AgeX Therapeutics, Inc., priority 2013, published 2023)
